In patent publication US6399759 one finds IC50 data, which are given here for one molecule.

Assay in all cases: cell-based or functional assay
In assay [1] the target is Soli E1 (Solenopsis invicta).
Assay [2] deals with Soli C2 (Solenopsis invicta).
Assay [3] addresses T1, Soli E2 (Solenopsis invicta).
T1 sequence: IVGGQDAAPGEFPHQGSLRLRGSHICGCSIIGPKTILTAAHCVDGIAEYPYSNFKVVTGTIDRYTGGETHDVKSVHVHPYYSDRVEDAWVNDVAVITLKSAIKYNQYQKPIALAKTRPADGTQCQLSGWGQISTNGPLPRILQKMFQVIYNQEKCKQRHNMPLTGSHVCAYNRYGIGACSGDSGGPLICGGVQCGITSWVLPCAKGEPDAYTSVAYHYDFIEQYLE

Assay [4] addresses Soli C1 (Solenopsis invicta).

Sequence of Soli C1 (Solenopsis invicta) (Q7SIG2 other isoform, or with tags, fused parts or gaps): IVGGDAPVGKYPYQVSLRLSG
Sequence of Soli E1 (Solenopsis invicta) (main, as listed by the source): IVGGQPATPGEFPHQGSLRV
Sequence of Soli C2 (Solenopsis invicta) (main, as listed by the source): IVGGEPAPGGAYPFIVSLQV

B1: Soy Bean Trypsin Inhibitor I-S (protein, soybean, UniProt P01070 25-205, looked up)
chain: DFVLDNEGNPLENGGTYYILSDITAFGGIRAAPTGNERCPLTVVQSRNELDKGIGTIISSPYRIRFIAEGHPLSLKFDSFAVIMLCVGIPTEWSVVEDLPEGPAVKIGENKDAMDGWFRLERVSDDEFNNYKLVFCPQQAEDDKCGDIGISIDHDDGTRRLVVSKNKPLVVQFQKLDKESL
With B1, the IC50 is 4.22 nM in assay [1], 1.41 nM in assay [2], 5.58 nM in assay [3] and 37 nM in assay [4].

As a reminder, the IC50 is the point on the concentration scale where inhibition reaches its midpoint. A low value points to higher potency.
